# Results from the DeepSol protein solubility set.
# Experiment: soluble on expression in E. coli; label from the status in PepcDB or PDB records
row,Sequence,soluble on expression in E. coli
1,MGSDKIHHHHHHVAIALDFGTSNTVVARWNTETQSPELLSLTNLSQRGSQTPPLIPSLLYVEEATMPRLLAGQAVRDQGRDRPQDSRFFRSFKRGIGAEVTGFLPDLDGVCPDFEQVGQWFLDTVIAALEPGDRDGADLVLTVPVDSFENYRLWLSRVAQQWPVDRVRLIDEPTAAALGYGVEQQSPILVFDFGGGTLDLALIELGQTTSKVRSPLGFILKWGDQSFGDNSGQRPQLARVLAKAGRNLGGNDLDDWLTDYFAKQLNTAPTRVLTRLAERIKIQLSTTPEASEVYFDDETLQSLQLQLDRSQFQQILHDRGFFEQLDELLESVLQQGRRQGINPDAIAAVLMVGGSAQIPAVQDWLAGYFPTEKIRCDRPFEAVACGALQLAQGLEVRDFLYHSYGIRYWNHRSQRHDWHPLIPPGQAYPMAEPVELVLGASVAQQPSMELVLGELSQDRGATEIFFDGDRLITRRIGPDRTAAKALNDSETARTIARLDPPGDPGVDRLRLQFWVDRDRFLRVTIEDLLTLETVVENQVVIQL,not soluble
2,MGSDKIHHHHHHAQTDPSQLKKEGSDAFNAKNYPVAYAKFSEYLKQTNNQDSAIAYYCGMAADEVKKYAEAVTFFDIAIQKKFNIGNAYARKALALDAMKKTDEYVATLEEGLKVDPDNKTMIKNYGLHYLKAGIAAQKAGKVEEAEECFKKVIPLDHKTYKTNALYSLGVLCYNDGANILKKAAPLANSDADKYAAEKEKADGRFKEAIGYLEEATKVSPEDTKSKTMLSQVQAAMK,not soluble
3,MGSDKIHHHHHHMFFIRVDSNQTISGGHIMRCLAIAKALIINGKDVTFLIADDNPVEVLKQNRVSYVILNSDWQDLMSDLEQTIKVLSQENDPYLLIDTYCITKEYVEGLKAYAKVGYLGSKSEYLGNLDFLINYSSYIDYNYYKNNYFNGTKLLLGISYAPLRDEFQNQEPHYREQVRNILITTGNTDNDGMVGLLLDRLRYLLKEKNIIANVIIGRMFNNKELLHVKYDDNSNVKLYENVSSMSTIMRNCDLAISANGTTIYELSAMAIPTISFAMVEEQVKSAEGLDALRVIDYCGTSYTDVNKCVKAIIDKALYYIENYDNRIRLAQNAHNLIDGNGCQKIIDELF,not soluble
4,MTIHNFDLLVVGGGINGTGIARDAAGRHLSVCLCEQHDLASHTSSASTKLIHGGLRYLEYYEFALVSKALAEREILLRQAPHIVRPLHFILPHQPHLRPTWIIRAGLLLYDHLGFSRRTLPRSRRLNLAQHPAGQPLKQELHTGFMYCDAQVQDARLVVLNAMDAAQRGARILTRTRCVRTRRDGAHWLTELEDAQGRQQQIRTRAIVNAAGPWAVTFLDHIAQQPHQHTLRLVKGSHIVVPRLFEHEHAYIFQQPDRRIVFAIPYEQHFTLIGTTDVDYVADPANPHIDAAETMYLCNAVNSYFRQQITPEDVLWSYSGVRPLLNDGHNNASKVTRDYQLEILGNSAPLLNVFGGKLTTYRKLSEEAVNQLCVALDHPYRAWTANGPPLPGGEHHDIAALQNTLRQHRPWLPTATAQRLIHNYGTYAETLLGNATNLHTLGIHFGADLYQAEVDYLRTHEWACSAEDILWRRSKLGLHLDAHGTQRLEDYLRSCSRIPDHADTTTQLEHHHHHH,not soluble
5,MGSDKIHHHHHHMKRFTLWNSYVAITESKEFVDWNKTKIIGSFKCPAFSYRSSTQIKADPFLFEYNNAIYLFYEEKYKNGKGYIVCTWTSDLKNWSQPVVVLKEPFHLSFPYVFKINDKIYMLPESNESNELRLYECVDFPYKWKLNKIIFDNGKYVDSSIICKGDIYYLFTTHKTENSFYHELYYCNDLLSDKWIKHPQSPISNNPKFARNGGSVFSHNNNLFRPAQDCSVSYGNNLSIFNVTHLSIDKYEETLVATNFFPKYKFKHGGHHFSHIEYKGQNIIAFDKKSREYAITPLFSSLYALICRLMKITSHK,not soluble
6,MNVMRHSWLAVAGIAGLLAFPPVDACTLWGAAGTASMEGSLLAKNRDWKPDHAQSLRLLHPEHGYAYLGLYADNGSEPGIKAGVNQKGLAVVAAEASSLPRALRADSARHGVLTRLLRDYGSLDEVASAADKLFAQARPVFLLLADAGGLMQVEIGQHGRYRLIRQQSGTLAHTNHYADTSLLDGAQTIGPSSQARLERIRFLLDQHPAHTLSEFERLSRDRHDGPDNSLWRSGREHTLAGWRIALPAGAPPRLQLTLANPGRAERDGDYALDSAFWAQPARTLLPKLAAALEHHHHHH,soluble
7,MSLDLGTTKYIIYAELIADGYVEKHDVIGAIFGQTEGLLGDELDLRELQKTGRVGRIDVELTNINGKSIAKITVPSSLDRIETSILAATLETIDRVGPCVATVKVIDIEDIRKKKREYIVERAKEILKQLMSNIDVNTIIEEVKESVRMGEIIEYGPERLPAGPAVDEGHHHHHH,soluble
8,METEIKRTSTKDIIAYLTEKFPECFSIKGPVKPLKIGIFQDLAEKLDDDETVSKTRLRQALRHYTSSWRYLKVIKVGNSRVDVDGKDVAEIDEDQAAYASKTLKESQEKFGNKKATDNDAKKPYKGKQGSTEAANNKPADKKRESTKFKTVKSTPKKTVKKEVEPLKSVESTTINVGSKVRVQLGNSPMKATITEISGKDISVQLDSGMVIKTQLQNIYL,not soluble
9,MFTGIVQGTAPIHSIKEKANFRTQVVKLLPEMRKDLEIGASIANNGVCLTVTEINGDLVSFDLMQETLKITNLGTVKVGDYVNIERAMQMGTEIGGHLLSGHIYCTAKISDIIASENNRQIWFELPSADVMKYILTKGFVAVDGISLTIGEVRDTQFCVNLIPETLQRTLMGRRKVGDIVNIEIDPQTQAIVDTVENYLQSKNFLEHHHHHH,soluble
10,MGSDKIHHHHHHMEVKPFRPLIYRKEIDGMIAPPFDAITPKEEVELKRNKYNITYLTLPKGRDGIPHAKMLLQSWLENGVLIPMKEDVFIVLRQRFYVGDECINRYGLIAKVKVFPESGDVIPHERTFDMYVKERETLMDGISSQLEPIFLVTLKNDLPGYLKAITDGLKEDNTYFGPENVENFVYYINDKRKINKIISLLAEDKSIVADGHHRLQATKNIAARKSGGEREFWSYAMAYITSIHDPGVLVGGVNRVVSNKFRLDMNVLSKYFEINQVERLDETNINLFNGRLYSLKIRIPVYDNLIDASNDFILSKSASMNYTDIENEVIYTHDIYELMSLVNSGSYSFGIILPRWDKMKLIETLLSGRKLPQKSTYFYPKIPSGLAIDTALELRLS,not soluble
11,MTWNTCSLCVTSELMNTLDEAKIPLQKAVNYHEQSQNRQFRITLITKCLENQENPEKSEVSVNFFVDLKELVPSCAYFEKFDGLSYVEFSTNCKSTWISAPESVAAPHEDCSHRFQSPIISRNFHAFLDSVCPSLYGIRPTPLTLSSIVPVLDMLSHFHSEPLLTNCERFLMSTNIGHLDGNHLIRLLDKGLCVSLDHRILGRILCICLMSPQAKMSDSSQELAGTIGSVFAQAFVALVYQKLMVKCEENSNLLIEKSKKSIFDGIFMENLKKKLIFHNFYEYSNISKSFRHIKPLEQESSLWPMAMRNLLIPGALGANSSSSKGSSEEKIGNKKRKRQECDHNEESFECILCFDQRCGKCKGEAAFCYKALDNFLYEIRLQLYPHTYRPHLDRDLLREERLSDYILRNQFQPLPDAN,not soluble
12,MNKKSVGQPPEGLHETKSLASALPEKNAEQRPKYVQIVALPSEIKSRELPIAPDNVVYFNGPTHYLSALYPCTVVVDGNEYNSVEHYYQACKLYVLTGEQSAAQLKASETPIEVKKATKNILKEAKIPAKKISAWKDKDSIAVLKHVIYHKFNQNDELKVKLLDTGDKILIQTYIGDTYFAAGANAKYTSTWVDRHVNQSLKYPENVVVDNVQYLPLVANGKNVLGWILMQVRDELRMRSSA,soluble
13,MLRIGLTGGIGAGKSLLSTTFSQCGGIVVDGDVLAREVVQPGTEGLASLVDAFGRDILLADGALDRQALAAKAFRDDESRGVLNGIVHPLVARRRSEIIAAVSGDAVVVEDIPLLVESGMAPLFPLVVVVHADVELRVRRLVEQRGMAEADARARIAAQASDQQRRAVADVWLDNSGSPEDLVRRARDVWNTRVQPFAHNLAQRQIARAPARLVPADPSWPDQARRIVNRLKIACGHKALRVDHIGSTAVSGFPDFLAKDVIDIQVTVESLDVADELAEPLLAAGYPRLEHITQDTEKTDARSTVGRYDHTDSAALWHKRVHASADPGRPTNVHLRVHGWPNQQFALLFVDWLAANPGAREDYLTVKCDADRRADGELARYVTAKEPWFLDAYQRAWEWADAVHWRP,soluble
14,MDRLRFDHRVITENGNKQPLVMVINLSSISMAMMSYDFNSKPLLIFWETTKACGLKCEHCRASAILDALPGEMTFDQSINFLSHIKEFGKPYPIVILTGGDMLRKHRIWDIMDYLRSQEIPFSVSPAVTDLLTHEAILKFKEFGVSSVSISLDGMREVHEKVRGVAGVYDDTVKAIEDLISTGISMQINTVVMRSTVHDLPHVLKLIIDKGVKVWEVFFLIKTGRGIDREDLSPEEYENVNKFLLFATGYGIRIRTVESPIYRRITMQYGKNGLIKGGRLFDELREETVSLIGNPSKEYASSVIPTRDGFGIIFVGHDGEVYPSGFLPYSVGNVKDRSIVDIYRNSDLLNSIRNPDNLHGKCGLCEYRKVCGGSRARAFAYTGDPFGTDPSCIYEPSAVPE,not soluble
15,MNIFNNVKKAEIHVHLEATITPSICKKFADRNNHEIPDDFFGSKYAYEWDDFYDFLKKYDIVTSVIHTPEDYYELTYEYLKECAANNVIYMEAMISSTHAKNKGMTYHSFIEGVYEASKKAEEDFGIVARYIMNGIRHLGPESVQNTAEEVLKNPHPCLVGFGLAGDELHFPPNLFVKTFDMLKEANFPITVHAGEWDGPENIRNAINLLHPTRLGHGVRSIEDPELVKEIIDKDIILETCPTSNIATKIYEDYESHPVKTLFNQGVKVTVNSDDPPFFMQLFQ,soluble
16,SGHPPLEFSDCYLDSPDFRERLKCYEQELERTNKFIKDVIKDGNALISAMRNYSSAVQKFSQTLQSFQFDFIGDTLTDDEINIAESFKEFAELLNEVENERMMMVHNASDLLIKPLENFRKEQIGFTKERKKKFEKDGERFYSLLDRHLHLSSKKKESQLQEADLQVDKERHNFFESSLDYVYQIQEVQESKKFNIVEPVLAFLHSLFISNSLTVELTQDFLPYKQQLQLSLQNTRNHFSSTREEMEELKKRMKEAPQTCKLPGQPTIEGYLYTQEKCVWGHRGIHWVSISQELLPLVGCEFWAPLLFIDP,soluble
17,MGSDKIHHHHHHMKLRSWEFYDRIARAYDSMYETPKWKLYHRLIGSFLEEYLKNPCRVLDLGGGTGKWSLFLQERGFEVVLVDPSKEMLEVAREKGVKNVVEAKAEDLPFPSGAFEAVLALGDVLSYVENKDKAFSEIRRVLVPDGLLIATVDNFYTFLQQMIEKDAWDQITRFLKTQTTSVGTTLFSFNSYAFKPEDLDSLEGFETVDIRGIGVMEYPDERISEREETIFRLEQELSRDRNIIWKADHIFFVLKKKRGA,soluble
18,MSSIKTSPTKKTSESTTKQDTPNDQTNIENFDEEPSMLSDPEDYLEENETLDMNLSKGDQKVWLVKLPKYLMDDWSNPDSMNGQQLGNVKIKKDARGKLQVKLLLDNKNDRIPKEYDIKMLNTQVRNSYVFTEENLKKFKQEVTEVSDMPEQPQLKELNPEKKKFQVRRKFKYFRVQKEGENGQPVKKYIPFVKTIPKKTSLMGKVCHDCTVVPARTGSKHGESLMKHQNMTQGKERPKVTLLNEIPGVIQSNAGPSIKGNAASIFLKSTQGKNKSEGRTIRMPKKDLLDLLFRLFEEYEYWSMKGLKERTRQPESYLKESLESIATLIKRGPYTSKYTLKAEYRRLRDAERAVRLGLDEDDQNKENNEDEDEDEEMEDVV,soluble
